{"source": "the RNAGym collection of RNA variant scans (doi:10.1073/pnas.2313332121)", "parents": {"B1": {"name": "TPR t1 (parent)", "chain": "GACCAAUCUGCCCUCAGAGCUCGAGAACAUCUUCGGAUGCAGAGGAGGCAGGCUUCGGUGGCGCGAUAGCGCCAACGUCCUCAACCUCCAAUGCAUCCCACCACAUGAUGAUGCCUGAAGAGCCUUGGUUUUUUG"}}}
{"variants_of": "B1", "assay": "polymerase ribozyme fitness, log enrichment relative to wild type (log ratio); higher = more active; in vitro selection for triplet polymerase activity", "how_it_was_run": "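Fitness is a logarithmic measure of how a genotype enriched relative to the wild type, with replicate averages weighted by inverse variance. The logarithm uses base 2, and enrichment came from Illumina sequencing of input and output libraries. Those libraries were PCR-built, transcribed mutants of each subunit of a heterodimeric triplet polymerase ribozyme, passed through one triplicate in vitro selection round that included frozen incubation at −7 °C, gel excision of extended constructs and streptavidin-bead capture. Genotypes were kept only if they had ≥10 input reads and ≥1 read per output.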"}
{"variant": "GACCAAUCCGCCCUCAGAGCUCGAGAACAUCUUCGGAUGCUGAGGAGGCAGGCUUCGGUGGCGCGAUAGAGCCAACGUCCUCAACCUCCAAUGCAUCCCACCACAUGAUGAUGCCUGAAGAGCCAUGGUUUUUUG", "note": "[U9C A41U C70A U125A]", "polymerase ribozyme fitness (log ratio)": -4.15}
{"variant": "GACCAAUCCGCCCUCAGAGCUCGAGAACAUCUUCGGAUGCAGCGGGGGCAGGCUUCGGUGGCGCGAUAGCGCCAACGUCCUCAACCUCCAAUGCAUCCCACCACAUGAUGAUGCCUGAAGAGCCUUGGUUUUUUG", "note": "[U9C A43C A46G]", "polymerase ribozyme fitness (log ratio)": -1.4}
{"variant": "GACCAAUCCGCCCUCAGAGCUCGAGAACAUCUUCGGAUGCAGGGGAGGCAGGCUUCGGUGGCGCGAUAGCGCCAACGUCCUCAACCUCUAAUGCAUCCCACCACAUGAUGAUGCCUGAAGAGCCUUGGUUUUUUG", "note": "[U9C A43G C89U]", "polymerase ribozyme fitness (log ratio)": -0.469}
{"variant": "GACCAAUCCGCCCUCAGAGCUCGAGAACAUCUUCGGAUGCAGAGGAGGCUGGCUUCGGUGGCGCGAUAGCGCCAACGUCCUCAACCUCCAAUGUAUCCCACCACAUGAUGAUGCCUGAAGAGCCUUGGUUUUUUG", "note": "[U9C A50U C94U]", "polymerase ribozyme fitness (log ratio)": -2.36}
{"variant": "GACCAAUCCGCCCUCAGAGCUCGAGAACAUCUUCGGAUGCAGAGGAGGCAGGCUUCGGUGGCGCGAUAGCGCCAACGUCCUCCACCUCCAAUGCAUCCCACCACAUGAUGAUGCCUGAAGAGCCUUGGUUUUUUG", "note": "[U9C A83C]", "polymerase ribozyme fitness (log ratio)": 0.121}
{"variant": "GACCAAUCCGCCCUCAGAGCUCGAGAACAUCUUCGGAUGCAGAGGAGGCAGGCUUCGGUGGCGCGAUAGCGCCAACGUCCUCAACCUCCAAUGCAUCCCACCACAUGAUGUUGCCUGAAGCGCCUAGGUGUUUUG", "note": "[U9C A111U A121C U126A U130G]", "polymerase ribozyme fitness (log ratio)": -4.36}
{"variant": "GACCAAUCCGUCCUCAGAGCUCGAGAACAUCUUCGGAUGCAGAGGAGGCAGGCUUCGGUGGCGCGAUAGCACCAACGUCCUCAACCUCCAAUGCAUCCCACCACAUGAUGCUGCCUGAAGAGCCUUGGUUUUUUG", "note": "[U9C C11U G71A A111C]", "polymerase ribozyme fitness (log ratio)": -1.02}
{"variant": "GACCAAUCCGCGCUCAGAGCUCGAGAACAUCUUCGGAUGCAGAGGAGGCAGGCUCCGGUGGCGCGAUAGCGCCAACGUCCUCGACCUCCAAUACAUCCCACUACAUGAUGAUGCCUGAAGAGCCUUGGUUUUUUG", "note": "[U9C C12G U55C A83G G93A C102U]", "polymerase ribozyme fitness (log ratio)": -5.25}
{"variant": "GACCAAUCCGCUCUCGGAGCUCGAGAACAUCUUCGGAUGCAGAGGAGGGAGGCUUCGGUGGCGCGAUAGCGCCAACGUCCUCAACCUCCAAUGCAUCCCACCACAUGAUGAUGCCUGAAGAGCCUUGGUUUUUUG", "note": "[U9C C12U A16G C49G]", "polymerase ribozyme fitness (log ratio)": 0.31}
{"variant": "GACCAAUCCGCUCUCAGAGCUGGAGAACAUCUUCGGAUGCAGAGCAGGCAGGCUUCGGUGGCGCGAUAGCGGCAACGUCCUCAACCUCCAAUGCAUCCCUCCACAUGAUGAUGCCUGAAGAGCCUUGGUUUUUUG", "note": "[U9C C12U C22G G45C C72G A100U]", "polymerase ribozyme fitness (log ratio)": -4.47}
{"variant": "GACCAAUCCGCCUUCAGAGCUCGAGAUCAUCUUCGGAUGCAGAGGCGGCAGACUUCGGUGGCGCGAUAGCGCCAACGUCCUCAACCUCCAAUGCAUCCCACCACAUGAUGAUACCUGAAGAGCCUUGGUUUUUUG", "note": "[U9C C13U A27U A46C G52A G113A]", "polymerase ribozyme fitness (log ratio)": -6.07}
{"variant": "GACCAAUCCGCCUUCAGAGCUCGAGAACAUCUUCGGAUGCAGAGGAGACAGGCUUCGGUGGCGCGAUAGCGCCCACGUCCGCAACCUCCAAUGCAUCCCAUCACAUGAUGAUGCCUGAAGAGCCUCGGUUUUUUG", "note": "[U9C C13U G48A A74C U81G C101U U126C]", "polymerase ribozyme fitness (log ratio)": -2.71}
{"variant": "GACCAAUCCGCCCUAAGAGCUCGAGAACAUCUUCGGAUGCAGAUGAGGCAGGCUUCGGUCGCGCGAUAGCGCCAACGUCCUCAACCUCCAUUGCAUCCCACCACAUGAUGAUGCCUGAAGAGCCUUGGUUUUUUG", "note": "[U9C C15A G44U G60C A91U]", "polymerase ribozyme fitness (log ratio)": -1.82}
{"variant": "GACCAAUCCGCCCUAAGAGCUCGAGAACAUCUUCGGAUGCAGAGCAGGCAGGCUUCCGAGGCGCGAUAGCGCCAACGUCCUCAACCUCCAAUGCAUCCCACCACAUGAUGAUGCCUGAAGAGCCUUGGUUUUUUG", "note": "[U9C C15A G45C G57C U59A]", "polymerase ribozyme fitness (log ratio)": 0.541}
{"variant": "GACCAAUCCGCCCUGAGAGCUCGAGAACAUCUUCGGAUGCAGUGGAGGCAGGCUUCGGUGGCGCGAUAGCGCCAACGUCCUCAACCUCCAAUGCAUCCCACCACAUGAUGAUGCCUGAAGAGCCUUGGUUUUUUG", "note": "[U9C C15G A43U]", "polymerase ribozyme fitness (log ratio)": -1.5}
{"variant": "GACCAAUCCGCCCUGAGAGCUCGAGAACAUCUUCGGAUGCAGAGGAGGCAGGCUUCGGUGGCGCGAUAGCGCCAACGUCCUCAACCUCCAAUGCAUCCCACCACAAGAUGAUGCCUGAAGAGCCUUGGUUUUUUG", "note": "[U9C C15G U106A]", "polymerase ribozyme fitness (log ratio)": -1.27}
{"variant": "GACCAAUCCGCCCUCAGAGCUCGAGAAUAUCUUCGUAUGCAGAGGAGGCAGGCUUCGGUGGCGCGAUAGCGCCAACGUCCUCAACCUCCAAUGCAUCCCACCACAUGAUGAUGCCUGAAGGGCCUUGGUUUUUUG", "note": "[U9C C28U G36U A121G]", "polymerase ribozyme fitness (log ratio)": 0.0298}
{"variant": "GACCAAUCCGCCCUCAGAGCUCGAGAACAUUUUCGGUUGCAGAGGAGGCAGGCUUCGGUGGCGCGAUAGCGCCAACGUCCUCAACCUCCAAUGCAUCCCACCACAUGAUGAUGCCUGAAGAGCCUUGGUUUUUUG", "note": "[U9C C31U A37U]", "polymerase ribozyme fitness (log ratio)": -5.02}
{"variant": "GACCAAUCCGCCCUCAGAGCUCGAGAACAUUUUCGGAUGCAGAGGAGGCAGGCUUAGGUGGCGCGAUAGCGCCAACGUCCUCAACCUCCAAUGCAUCCCACCUCAUGAUGAUGCCUGAAUAGCCUUGGUUUUUUG", "note": "[U9C C31U C56A A103U G120U]", "polymerase ribozyme fitness (log ratio)": -6.8}
{"variant": "GACCAAUCCGCCCUCAGAGCUCGAGAACAUCUUUGGAUGCAGAGGAGGCAGGCUUGGGUGGCGCGAUAGCGCCAACAUCCUCAACCUCCAAUGCAUCCCACCACAAGAUGAUACCUGAAGGGCCUUGGUUUUUUG", "note": "[U9C C34U C56G G77A U106A G113A A121G]", "polymerase ribozyme fitness (log ratio)": -3.53}
{"variant": "GACCAAUCCGCCCUCAGAGCUCGAGAACAUCUUCGGAUGGAGAGGAGGCAGGCUUCGGUGGCGCGAUAGCGCCAACGUCCUCAACCUCCAAUGCAUCCCAUCACAUGAUGAUGCCUGAAGAGCCUUGGUUUUUUG", "note": "[U9C C40G C101U]", "polymerase ribozyme fitness (log ratio)": -0.436}
